Two molecules from patent publication US20250388664A1 (BIOARCTIC, published 2025) can be followed below.

The target in assay [1] is T1, ectodomain of human TfR1 (His10-hTfR1; SEQ ID NO:110) (human, UniProt P02786 89-760).
T1 construct: also called ectodomain of hTfR1
The assay is described as follows: indirect ELISA: plate coated with 1 µg/ml hTfR1 ectodomain, mouse IgG titrated, anti-mouse IgG-HRP; x axis printed as 'TfR (ng/ml)'. Here is the method: (§1) In the ELISA experiment, human, mouse or three different chimeric TfR1 receptors were used to coat ELISA plates (FIGS. 30A-30E). The ELISA protocol was slightly modified as follows from the indirect ELISA described in Example 15. […] The coated plates were then blocked. Dilution series of mouse IgG of the analyzed antibodies were prepared in PBS and incubated on the ELISA plates. Unbound antibodies were then washed off before incubating wells with a HRP-conjugated secondary, anti-mouse-IgG for 1 h. Plates were then washed again before addition of HRP substrate TMB for development and detection of antibody binding to the wells. TMB development was stopped by adding 0.5 M H₂SO₄ to the wells and ELISA responses measured as the OD at 450 nm in an ELISA plate reader.

The target in assay [2] is T2, h/m apical domain chimera (SEQ ID NO:112) (human/mouse chimera).
T2 construct: also called chimeric TfR1 consisting of human apical domain grafted on mouse TfR1 ectodomain
T2 chain: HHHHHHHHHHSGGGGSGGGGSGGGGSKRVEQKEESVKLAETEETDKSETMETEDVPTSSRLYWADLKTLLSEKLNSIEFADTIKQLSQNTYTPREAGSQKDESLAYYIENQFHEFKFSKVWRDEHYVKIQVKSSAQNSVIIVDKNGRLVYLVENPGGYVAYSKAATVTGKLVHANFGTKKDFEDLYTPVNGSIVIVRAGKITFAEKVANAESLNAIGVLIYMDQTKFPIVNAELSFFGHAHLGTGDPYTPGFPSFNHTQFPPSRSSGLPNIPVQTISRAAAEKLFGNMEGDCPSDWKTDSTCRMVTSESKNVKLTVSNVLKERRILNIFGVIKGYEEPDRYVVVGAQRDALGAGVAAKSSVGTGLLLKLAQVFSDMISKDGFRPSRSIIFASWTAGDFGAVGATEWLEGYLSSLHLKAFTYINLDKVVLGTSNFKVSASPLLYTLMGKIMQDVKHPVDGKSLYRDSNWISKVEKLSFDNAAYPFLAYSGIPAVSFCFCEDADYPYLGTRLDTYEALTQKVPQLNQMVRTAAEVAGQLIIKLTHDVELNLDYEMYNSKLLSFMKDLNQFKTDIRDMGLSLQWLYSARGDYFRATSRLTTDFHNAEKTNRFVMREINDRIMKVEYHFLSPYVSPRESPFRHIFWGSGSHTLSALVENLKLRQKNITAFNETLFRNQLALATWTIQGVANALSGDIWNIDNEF
Kind of assay: indirect ELISA: plate coated with 1 µg/ml h/m apical domain chimera, mouse IgG titrated, anti-mouse IgG-HRP; x axis printed as 'TfR (ng/ml)'. As to the method: Plasma samples serially diluted from a starting dilution of 1/450 or hybridoma supernatants diluted 1/2 were added to the plates (50 μl/well; dilution buffer: PBS with 0.1% BSA and 0.05% TWEEN®-20) and incubated for 2 h at room temperature and then the plates were washed four times. […] After another wash (as above), 50 μl/well TMB substrate (K-Blue® Aqueous, Neogen) was added, and the reaction was stopped after 10-15 min with 50 μl/well of 0.5 M H₂SO₄. The optical density at 450 nm was read using a plate reader (Tecan). The endpoint titers were defined as the dilution above the average of the blank wells (background) plus 3 standard deviations of the blank wells.
as §1
For orientation: An ELISA detects its analyte on a solid surface through an enzyme-linked reagent.

In assay [3] the target is T3, His10-hTfR1 (SEQ ID NO:109) (human, UniProt P02786 90-760).
T3 construct: Recombinant, HEK293; also called His-tagged hTfR1; His-tagged hTfR
Kind of assay: ELISA, hybridoma supernatant.

The target in assay [4] is T4, hTfR1 (recombinant, construct not specified) (human, UniProt P02786 89-760, limits assumed).
T4 construct: also called biotinylated hTfR1
The assay is described as follows: BLI: IgG captured from hybridoma supernatant on anti-mouse capture sensors, 250 nM hTfR1 in solution, 120 s association, 90 s dissociation. Here is the method:
Next, sensors with immobilized IgGs were briefly washed for 10 s before incubation in running buffer to establish a baseline signal. […] All proteins were diluted in running buffer. Target dissociation was measured by incubating the biosensors in running buffer for 90 s.
In general terms: BLI is a label-free optical method that tracks binding on a fibre tip over time.

In assay [5] the target is T5, h/m helical domain chimera (SEQ ID NO:113) (human/mouse chimera, UniProt Q62351 90-763 (mouse entry)).
T5 construct: also called chimeric TfR1 consisting of human helical domain grafted on mouse TfR1 ectodomain
T5 chain: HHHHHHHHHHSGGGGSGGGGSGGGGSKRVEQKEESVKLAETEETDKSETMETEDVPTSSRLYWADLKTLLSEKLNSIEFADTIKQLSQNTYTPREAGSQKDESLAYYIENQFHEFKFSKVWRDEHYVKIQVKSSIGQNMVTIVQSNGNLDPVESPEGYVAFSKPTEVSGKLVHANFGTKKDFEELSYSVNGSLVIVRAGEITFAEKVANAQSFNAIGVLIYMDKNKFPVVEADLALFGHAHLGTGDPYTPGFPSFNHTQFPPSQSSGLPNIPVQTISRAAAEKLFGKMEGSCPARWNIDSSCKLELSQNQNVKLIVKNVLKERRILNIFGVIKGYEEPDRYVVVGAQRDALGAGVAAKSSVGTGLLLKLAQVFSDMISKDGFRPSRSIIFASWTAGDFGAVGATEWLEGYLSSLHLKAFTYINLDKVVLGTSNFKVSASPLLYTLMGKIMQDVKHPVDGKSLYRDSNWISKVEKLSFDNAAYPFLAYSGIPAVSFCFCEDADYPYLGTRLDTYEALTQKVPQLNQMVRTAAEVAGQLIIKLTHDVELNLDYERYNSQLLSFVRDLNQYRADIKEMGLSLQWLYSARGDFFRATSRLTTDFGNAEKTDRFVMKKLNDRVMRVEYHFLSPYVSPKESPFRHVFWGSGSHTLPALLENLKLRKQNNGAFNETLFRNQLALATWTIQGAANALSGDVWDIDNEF
Kind of assay: indirect ELISA: plate coated with 1 µg/ml h/m helical domain chimera, mouse IgG titrated, anti-mouse IgG-HRP; x axis printed as 'TfR (ng/ml)'. Here is the method:
as §1

The target of the next assay is T6, Aβ4-28 monomer (UniProt P05067 675-699).
T6 construct: range 4-28 (Aβ numbering)
The assay is described as follows: SPR, antibody immobilised, monomer injected, 1:1 fit. Here is the method:
(§2) Single cycle kinetics with the antibodies immobilized on a CM5 chip was used to measure the binding of the antibodies to the different monomers (AβpE3-40, AβpE11-28, Aβ1-28, Aβ2-28, Aβ3-28 and Aβ4-28). For the measurements, 5 μg/ml of analyte antibody was immobilized on the chip. […] Regeneration of the surface between cycles was done by injecting 30 μl 3 M MgCl₂. The binding data was fitted to a 1:1 interaction model.
(§3) In all SPR experiments, 1×HBS-EP+ (Cytiva, cat. no. BR100669) was used as running buffer and to dilute antibodies and target antigens. Experiments were performed at 25° C.

In assay [6] the target is T7, AβpE3-40 monomer (UniProt P05067 674-711, pyroglutamate at position 3 (N-terminal residue)).
T7 construct: range 3-40 (Aβ numbering); Synthetic peptide (Bachem/Anaspec), verified monomeric by SEC; also called monomeric AβpE3-40
Described as above. Here is the method: as §2, §3

Assay [7] concerns the target T8, AβpE3-42 protofibrils (UniProt P05067 674-713, pyroglutamate at position 3 (N-terminal residue)).
T8 construct: range 3-42 (Aβ numbering); Soluble aggregates made from AβpE3-42 peptide, purified in the void peak of SEC; also called AβpE3-42 PF
The assay is described as follows: SPR, protofibrils immobilised, antibody injected, 1:1 fit, apparent; binding to AβpE3-42 protofibrils (not monomer); KD in pM. As to the method:
(§4) Single cycle kinetics was also used to measure binding of the antibodies to AβpE3-42 protofibrils. […] For binding to AβpE3-42 protofibrils, the antibodies were injected over the chip using a 3-fold dilution series in five steps starting at 700 nM, using 2 min injection of every antibody concentration and a 60 min dissociation time. Regeneration of the surface between cycles was done by injecting 30 μl 10 mM glycine-HCl pH 1.7. The binding data was fitted to a 1:1 interaction model.
as §3

The next assay deals with T9, AβpE11-40 monomer (UniProt P05067 682-711, pyroglutamate at position 11 (N-terminal residue)).
T9 construct: range 11-40 (Aβ numbering)
T9 peptide (looked up): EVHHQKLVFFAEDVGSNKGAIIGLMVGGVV
The assay is described as follows: inhibition ELISA, antigen titrated in solution, AβpE3-40 coat. Here is the method:
(§5) For binding to Aβ1-40 and AβpE11-40, the positive control 4G8 (Covance #SIG-39320, epitope: amino acids 17-24 of Aβ) was included. The recombinant antibodies were incubated at a fixed concentration (0.05 μg/ml) with titrating concentrations of the different Aβ antigens. After incubation for 45 min at 900 rpm to reach equilibrium, the antibody-Aβ samples were added to a blocked and washed ELISA plate with an AβpE3-40 coat (0.5 μM). The samples were incubated on the plate for 25 min without shaking followed by washing, incubation with detection antibody, another washing step and finally incubation with alkaline phosphatase substrate.

Another assay has as its target T10, Aβ1-40 monomer (UniProt P05067 672-711).
T10 construct: range 1-40 (Aβ numbering)
The description is as above. As to the method:
as §5

The target in assay [8] is T8, AβpE3-42 protofibrils. The description is as above. Here is the method:
as §5

Assay [9] deals with T7, AβpE3-40 monomer. Described as above. Here is the method:
as §5

The target in another assay is T11, Aβ2-42 monomer (UniProt P05067 673-713).
T11 construct: range 2-42 (Aβ numbering)
Kind of assay: ELISA: Aβ monomer captured on a polyclonal anti-Aβ42 coat, hybridoma supernatant diluted 1/243, anti-mouse IgG-HRP.

For a further assay, the target named is T12, Aβ1-42 monomer (UniProt P05067 672-713).
T12 construct: range 1-42 (Aβ numbering)
The assay is described as above.

The next assay deals with T13, Aβ3-28 monomer (UniProt P05067 674-699).
T13 construct: range 3-28 (Aβ numbering)
Kind of assay: SPR, antibody immobilised. Here is the method: as §2, §3
For orientation: SPR reads the build-up and loss of mass on a sensor chip optically.

The next assay deals with T14, AβpE11-28 monomer (UniProt P05067 682-699, pyroglutamate at position 11 (N-terminal residue)).
T14 construct: range 11-28 (Aβ numbering)
T14 peptide (looked up): EVHHQKLVFFAEDVGSNK
The assay is described as follows: SPR, antibody immobilised. As to the method: as §2, §3

The target of a further assay is T15, Aβ2-28 monomer (UniProt P05067 673-699).
T15 construct: range 2-28 (Aβ numbering)
The assay is described as follows: SPR, antibody immobilised. As to the method: as §2, §3

In a further assay the target is T16, Aβ1-28 monomer (UniProt P05067 672-699).
T16 construct: range 1-28 (Aβ numbering)
Kind of assay: SPR, antibody immobilised. Here is the method:
Affinity and specificity evaluation and KD determination by surface plasmon resonance: Binding interactions between antigens and antibodies were evaluated by SPR using a Biacore 8K instrument (Cytiva) according to standard procedures. […] Additionally, the specificity towards different N-truncated forms of Aβ (Aβ2-28, Aβ3-28, Aβ4-28 and AβpE11-28 monomers) was evaluated.
as §2, §3

In assay [10] the target is T8, AβpE3-42 protofibrils. Kind of assay: SPR, protofibrils immobilised, antibody injected, 1:1 fit, apparent. As to the method: as §4, §3

T6 sequence (P05067 675-699): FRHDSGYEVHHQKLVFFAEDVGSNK
T8 sequence (P05067 674-713): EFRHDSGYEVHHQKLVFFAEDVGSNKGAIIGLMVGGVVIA
T16 sequence (P05067 672-699): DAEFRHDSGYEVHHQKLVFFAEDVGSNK
T13 sequence (P05067 674-699): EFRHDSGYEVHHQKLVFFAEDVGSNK
T11 sequence (P05067 673-713): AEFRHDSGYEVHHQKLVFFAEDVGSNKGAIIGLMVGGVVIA
T15 sequence (P05067 673-699): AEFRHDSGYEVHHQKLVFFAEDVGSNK
T12 sequence (P05067 672-713): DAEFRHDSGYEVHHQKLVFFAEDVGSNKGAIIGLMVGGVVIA

B1: 37D10 (antibody, V domains shown)
VH: QVQLQQSGAELVRPGTSVKISCKASGYAFTNYWLGWVKQRPGHGLEWIGDIFPGSDNTYYNEKFKGKATLTADKSSSTAYMQLSSLASEDSAVYFCARSGNFYAMDYWGQGTSVTVSS
VL: ENVLTQSPAIMSASPGEKVTMTCSASSSVNYMNWYQQKSSTFPKLWIYDTSKLASGVPGRFSGSGSGKFYSLTISSMEAEDVATYYCFQGSGYPFTFGSGTKLEIK
notes: also called mouse antibody 37D10; clone 37D10
Take B1: the binding result in assay [1] is given as “binds”; in [2], “no binding (tested: about 600 ng/ml)”; in assay [3], “binds”; in assay [4], “binds”; in assay [5], “no binding (tested: about 600 ng/ml)”.

B2: Pyr7.1 (antibody, V domains shown)
VH: KVQLQQSGPELVKPGTSIKMSCKTSGYSFTGYTLNWVKQSPGKNPEWIGLINPYNGITTYNPKFMGKATLTVDKSSSTAYMELLSLTSEDSAVYYCSREGNWEGVYWGQGTLVTVSA
VL: not shown
notes: Murine anti-AβpE3 antibody; also called recombinant antibody Pyr7.1; hybridoma clone Pyr7.1
In general, koff refers to the first-order rate constant of dissociation. Broadly, the kon is a measure of how fast the partners come together. What is called IC50 is the concentration needed to halve the response being measured. B2: the Kd in the assay with Aβ4-28 monomer is 8310 nM; with AβpE3-40 monomer [6] it was 2.3 nM; in the assay with AβpE3-42 protofibrils [7], 0.031 nM. Moreover, the koff amounted to 0.454 s⁻¹ with Aβ4-28 monomer, 0.000122 s⁻¹ with AβpE3-40 monomer [6] and 2.29e-06 s⁻¹ in the assay with AβpE3-42 protofibrils [10]. The results for the kon in the assay with Aβ4-28 monomer, in the assay with AβpE3-40 monomer [6] and with AβpE3-42 protofibrils [10] were 102000 M⁻¹ s⁻¹, 53200 M⁻¹ s⁻¹ and 78200 M⁻¹ s⁻¹, respectively. Besides, the IC50 in the assay with AβpE11-40 monomer is over 5000 nM; in the assay with Aβ1-40 monomer, over 5000 nM; with AβpE3-42 protofibrils [8] it was 12.8 nM; in the assay with AβpE3-40 monomer [9], 2.85 nM. Further, the binding result in the assay with Aβ2-42 monomer is on record as “no binding”; with Aβ1-42 monomer, “no binding”; with Aβ3-28 monomer it was “no binding (tested: 2500 nM)”; in the assay with AβpE11-28 monomer, “no binding (tested: 2500 nM)”; with Aβ2-28 monomer it was “no binding (tested: 2500 nM)”; with Aβ1-28 monomer, “no binding (tested: 2500 nM)”.
